Consider one substance from paper PMC4613515.

For the experiment, the target named is His6–WT cyclin Y (Sf21) (human) (UniProt Q8ND76). The experiment in a line: co-purification on Ni-NTA–agarose, immunoblot; His6–cyclin Y (WT or S326A) expressed in Sf21 cells and affinity-purified; defined amounts immunoblotted for 14-3-3. (Immunoblotting shows a protein as a band on a membrane.)
UniProt Q8ND76, sequence (Q8ND76 whole entry): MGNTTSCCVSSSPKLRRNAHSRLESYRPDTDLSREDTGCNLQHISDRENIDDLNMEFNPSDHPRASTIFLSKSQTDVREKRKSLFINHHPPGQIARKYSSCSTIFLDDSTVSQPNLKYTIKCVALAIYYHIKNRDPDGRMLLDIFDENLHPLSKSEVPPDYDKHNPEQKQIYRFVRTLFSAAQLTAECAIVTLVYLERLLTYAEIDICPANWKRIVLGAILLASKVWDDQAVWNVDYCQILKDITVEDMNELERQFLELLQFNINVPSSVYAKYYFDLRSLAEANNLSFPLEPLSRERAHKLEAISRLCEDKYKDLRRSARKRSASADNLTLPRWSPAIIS

“14-3-3 proteins (endogenous in Sf21 cells) (natural protein)”: the amount of co-purified 14-3-3 against that with COS-1-derived WT cyclin Y was determined as 100 fold less.
